B1: 14-3-3ε protein (mouse, endogenous in MA-10 mouse Leydig tumor cells) (other, UniProt P62259 1-255, looked up)
chain: MDDREDLVYQAKLAEQAERYDEMVESMKKVAGMDVELTVEERNLLSVAYKNVIGARRASWRIISSIEQKEENKGGEDKLKMIREYRQMVETELKLICCDILDVLDKHLIPAANTGESKVFYYKMKGDYHRYLAEFATGNDRKEAAENSLVAYKAASDIAMTELPPTHPIRLGLALNFSVFYYEILNSPDRACRLAKAAFDDAIAELDTLSEESYKDSTLIMQLLRDNLTLWTSDMQGDGEEQNKEALQDVEDENQ
notes: whole, on cells; Endogenous intracellular protein, detected in fixed cells (Duolink) or cell lysates (co-IP); also called YWHAE gene product; mitochondrial import stimulating factor
B2: 14-3-3ε protein (human, endogenous in NCL-H295R adrenocortical cells) (other, UniProt P62258 1-255, looked up)
chain: B1 chain
notes: whole, on cells; Endogenous protein
B3: 14-3-3ε protein (rat, endogenous in testes sections of Sprague-Dawley rats) (other, UniProt P62260 1-255, looked up)
chain: B1 chain
notes: whole, on cells; Endogenous protein in tissue sections
B4: TAT-VDAC1 fusion peptide S167 (TVS167) (peptide)
peptide: YGRKKRRQRRRGSKSRVTQSNFAVG
notes: A FAM-labelled form was used only to show cell penetration; also called TAT-VDAC1 Ser167; TV167

Legend:
[1] = molecular target: T1, translocator protein (TSPO), mouse, endogenous in MA-10 cells (mouse, UniProt P50637 1-169); assay: Duolink in cell IP in MA-10 cells, signal/cell ratio, with TVS167 and 8-Br-cAMP (120 min)
T1 construct: whole, on cells; Endogenous outer mitochondrial membrane protein
T1 sequence (P50637 whole entry): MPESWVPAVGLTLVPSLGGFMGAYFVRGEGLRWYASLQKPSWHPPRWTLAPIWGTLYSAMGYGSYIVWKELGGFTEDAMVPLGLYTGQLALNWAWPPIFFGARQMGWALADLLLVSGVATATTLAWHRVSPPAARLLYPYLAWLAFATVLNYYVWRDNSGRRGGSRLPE

[2] = molecular target: T2, VDAC1 protein (mouse, endogenous in MA-10 cells) (mouse, UniProt Q60932 14-296); assay: Duolink in cell IP in MA-10 cells (figure legend)
T2 construct: Endogenous protein of the outer mitochondrial membrane in MA-10 cells; also called voltage-dependent anion-selective channel protein 1; mVDAC1
T2 sequence (Q60932 14-296): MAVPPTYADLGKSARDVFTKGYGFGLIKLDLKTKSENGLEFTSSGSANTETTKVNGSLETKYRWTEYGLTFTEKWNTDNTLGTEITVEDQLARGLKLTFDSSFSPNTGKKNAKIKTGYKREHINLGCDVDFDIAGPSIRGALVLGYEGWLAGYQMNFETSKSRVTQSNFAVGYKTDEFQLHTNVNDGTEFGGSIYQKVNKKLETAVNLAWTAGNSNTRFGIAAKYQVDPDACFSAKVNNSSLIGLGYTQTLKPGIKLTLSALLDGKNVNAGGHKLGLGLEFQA

[3] = molecular target: T3, VDAC1 protein (human, endogenous in NCL-H295R adrenocortical cells) (human, UniProt P21796 2-283); assay: Duolink assay in human adrenocortical cell line (figure legend)
T3 construct: Endogenous protein
T3 sequence (P21796 2-283 limits assumed, stated change not applied): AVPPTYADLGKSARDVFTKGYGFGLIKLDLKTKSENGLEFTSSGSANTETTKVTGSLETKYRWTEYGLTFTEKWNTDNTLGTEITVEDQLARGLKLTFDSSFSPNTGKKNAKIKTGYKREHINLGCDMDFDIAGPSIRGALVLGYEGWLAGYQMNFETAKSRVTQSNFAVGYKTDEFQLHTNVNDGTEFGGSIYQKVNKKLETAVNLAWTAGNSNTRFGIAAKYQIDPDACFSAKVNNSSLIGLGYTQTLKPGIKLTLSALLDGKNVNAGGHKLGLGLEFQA

[4] = molecular target: T4, VDAC1 protein (rat, endogenous in testes sections of Sprague-Dawley rats) (rat, UniProt Q9Z2L0 1-283); assay: Duolink assay on rat testes sections (figure legend)
T4 construct: Endogenous protein in tissue sections
T4 sequence (Q9Z2L0 whole entry): as the sequence (Q60932 14-296) above

[5] = molecular target: B1; assay: Duolink in cell IP in MA-10 cells, competition with endogenous VDAC1, 250 nM peptide

B1
fold increase of interactions in the presence of TVS167 against untreated control [1]: 1.6 fold | binding result [2]: binds

B2
binding result [3]: binds

B3
binding result [4]: binds

YGRKKRRQRRRGKLDLKTKSENGLE (also called TAT-VDAC1 Ser35) [TAT-VDAC1 fusion peptide S35 (TVS35)]
binding result [5]: binds

YGRKKRRQRRRGKLDLKTKGENGLE (also called TVS35G) [TAT-VDAC1 Gly35 (TVG35)]
binding result [5]: binds

B4
binding result [5]: binds

YGRKKRRQRRRGSKSRVTQGNFAVG (also called TVS167G) [TAT-VDAC1 Gly167 (TVG167)]
binding result [5]: binds

— patent US20160108087A1 (ROYAL INSTITUTION FOR THE ADVANCEMENT OF LEARNING MCGILL …, published 2016)
